Results from patent US9062353B2, “Electrically conductive polymer electrodes with incorporated viruses” (THE REGENTS OF THE UNIVERSITY OF CALIFORNIA, priority 2010, dated 2015).

Tests used:
Settings in all cases: phage-displayed peptide
PSMA monomer = target: T1, PSMA monomer (Homo sapiens, UniProt Q04609); assay: phage-based ELISA, binding to PSMA monomer
T1 construct: purchased Molecular Express, Inc
Protocol: (§1) A Nunc Maxisorp plate was coated with 10 μg/mL PSMA monomer or dimer protein for 1 h. The coating solution was removed, and the plate was blocked for 1 h with 0.2% BSA in PBS and washed 5 times with PT (300 μL/well). The wells were then incubated with phage displaying PSMA-binding peptides (100 μL/well) at the indicated concentrations for 1 h. After washing five times with PT, the plate was incubated with HRP-conjugated anti-M13 phage antibody (100 μL, 1:5000) in 0.1% PBT buffer for 30 min, and washed three times with PT, and twice with PBS. The plate was then developed using an o-phenylenediamine dihydrochloride/H2O2 solution (100 μL, 1 mg mL-1/0.02%) in citric acid buffer (50 mM citric acid, 50 mM Na2HPO4, pH 5.0), and the HRP activity was measured as absorbance at 450 nm.
The previously reported PSMA binding peptides, PSMA-1 (amino acid sequence, […] (SEQ ID NO:3)) and PSMA-2 (amino acid sequence, […] (SEQ ID NO:4)), were compared for affinity to the homodimeric and monomeric isoforms of PSMA. Details regarding PSMA-1 and PSMA-2 may be found in Yang, L. M. et al., Anal. Chem. 2006, 78, 3265-3270, which is incorporated by reference herein. Though diagnostically irrelevant, the monomeric isoform of PSMA provides a control for the binding specificity. […]

PSMA dimer = target: T2, PSMA dimer (Homo sapiens, UniProt Q04609); assay: phage-based ELISA, binding to PSMA dimer
T2 construct: purchased Molecular Express, Inc
Protocol: as §1
The previously reported PSMA binding peptides, PSMA-1 (amino acid sequence, […] (SEQ ID NO:3)) and PSMA-2 (amino acid sequence, […] (SEQ ID NO:4)), were compared for affinity to the homodimeric and monomeric isoforms of PSMA. Details regarding PSMA-1 and PSMA-2 may be found in Yang, L. M. et al., Anal. Chem. 2006, 78, 3265-3270, which is incorporated by reference herein. Though diagnostically irrelevant, the monomeric isoform of PSMA provides a control for the binding specificity. […] Chosen for its specificity to the PSMA dimer, the PSMA-2 sequence provided the template for an affinity maturation library targeting the PSMA dimer.

casein = assay: binding specificity, casein
TfR = TfR (Homo sapiens, UniProt P02786); assay: binding specificity, transferrin receptor
Chain of TfR (P02786 whole entry, species assumed): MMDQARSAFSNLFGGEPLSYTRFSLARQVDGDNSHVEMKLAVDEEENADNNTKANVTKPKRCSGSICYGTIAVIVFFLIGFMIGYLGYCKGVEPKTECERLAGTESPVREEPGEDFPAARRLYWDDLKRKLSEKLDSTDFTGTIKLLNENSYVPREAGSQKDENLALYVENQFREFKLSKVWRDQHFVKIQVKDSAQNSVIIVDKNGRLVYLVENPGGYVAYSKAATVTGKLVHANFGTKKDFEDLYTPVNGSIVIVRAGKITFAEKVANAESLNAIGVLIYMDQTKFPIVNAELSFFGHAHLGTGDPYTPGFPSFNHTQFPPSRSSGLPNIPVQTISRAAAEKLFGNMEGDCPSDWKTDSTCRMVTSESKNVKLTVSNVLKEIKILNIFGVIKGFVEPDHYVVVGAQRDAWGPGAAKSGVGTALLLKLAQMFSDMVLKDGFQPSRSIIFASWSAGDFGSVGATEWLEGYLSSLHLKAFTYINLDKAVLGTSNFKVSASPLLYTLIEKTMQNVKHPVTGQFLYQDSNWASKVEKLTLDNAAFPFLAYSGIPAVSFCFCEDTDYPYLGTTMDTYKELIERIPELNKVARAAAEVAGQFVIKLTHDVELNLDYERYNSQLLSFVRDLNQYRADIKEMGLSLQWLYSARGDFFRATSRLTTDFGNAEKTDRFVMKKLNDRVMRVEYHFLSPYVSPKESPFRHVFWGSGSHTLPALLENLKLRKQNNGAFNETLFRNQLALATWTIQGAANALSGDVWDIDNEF

T2 sequence (Q04609 whole entry): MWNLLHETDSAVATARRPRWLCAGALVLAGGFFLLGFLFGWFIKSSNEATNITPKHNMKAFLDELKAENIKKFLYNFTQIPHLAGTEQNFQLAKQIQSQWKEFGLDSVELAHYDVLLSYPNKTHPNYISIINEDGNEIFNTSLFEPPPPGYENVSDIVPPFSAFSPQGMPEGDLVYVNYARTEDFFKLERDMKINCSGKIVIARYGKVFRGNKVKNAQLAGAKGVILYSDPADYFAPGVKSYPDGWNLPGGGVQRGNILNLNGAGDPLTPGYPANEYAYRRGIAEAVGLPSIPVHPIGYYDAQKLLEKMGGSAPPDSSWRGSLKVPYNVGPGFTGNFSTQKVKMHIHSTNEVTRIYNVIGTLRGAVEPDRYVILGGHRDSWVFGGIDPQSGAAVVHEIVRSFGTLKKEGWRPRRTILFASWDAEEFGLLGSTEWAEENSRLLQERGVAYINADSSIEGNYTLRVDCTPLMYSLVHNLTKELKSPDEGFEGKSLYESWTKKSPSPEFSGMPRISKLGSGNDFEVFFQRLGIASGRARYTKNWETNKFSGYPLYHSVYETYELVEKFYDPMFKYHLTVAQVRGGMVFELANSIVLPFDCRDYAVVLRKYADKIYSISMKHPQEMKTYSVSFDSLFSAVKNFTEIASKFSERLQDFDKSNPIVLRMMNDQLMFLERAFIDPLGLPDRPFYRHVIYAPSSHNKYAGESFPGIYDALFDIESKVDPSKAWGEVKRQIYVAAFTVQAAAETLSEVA
T1 sequence (Q04609 whole entry): as above

CALCEFLG (displayed on M13 phage) [PSMA-1]
binding to PSMA monomer (PSMA monomer): binds to both isoforms of PSMA
binding to PSMA dimer (PSMA dimer): binds to both isoforms of PSMA

LDCVEVFQNSCDW (displayed on M13 phage) [PSMA-2]
binding to PSMA dimer (PSMA dimer): binds with high affinity and specificity to the PSMA dimer

SECVEVFQNSCDW (displayed on M13 phage) [PSMA-3]
binding to casein (casein): not
binding to TfR (TfR): not
binding to PSMA monomer (PSMA monomer): not PSMA monomer
binding to PSMA dimer (PSMA dimer): specific binding for the PSMA dimer
